# Measurements from paper PMC9813255 (2023).
# T1: human fibrillarin (His-tag fusion protein) (human, UniProt P22087 1-321)
# T1 chain: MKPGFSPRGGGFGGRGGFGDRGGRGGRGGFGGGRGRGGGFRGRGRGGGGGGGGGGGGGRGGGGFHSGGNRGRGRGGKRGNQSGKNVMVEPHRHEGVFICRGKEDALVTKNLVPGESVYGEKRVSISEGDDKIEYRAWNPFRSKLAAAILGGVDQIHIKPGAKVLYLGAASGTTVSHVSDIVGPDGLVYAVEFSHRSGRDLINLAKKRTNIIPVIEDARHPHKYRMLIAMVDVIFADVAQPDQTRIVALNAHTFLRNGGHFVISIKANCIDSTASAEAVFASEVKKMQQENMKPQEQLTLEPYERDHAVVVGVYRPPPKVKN
# T2: GST-Atxn1-86Q (UniProt P54253 1-815)
# T2 chain: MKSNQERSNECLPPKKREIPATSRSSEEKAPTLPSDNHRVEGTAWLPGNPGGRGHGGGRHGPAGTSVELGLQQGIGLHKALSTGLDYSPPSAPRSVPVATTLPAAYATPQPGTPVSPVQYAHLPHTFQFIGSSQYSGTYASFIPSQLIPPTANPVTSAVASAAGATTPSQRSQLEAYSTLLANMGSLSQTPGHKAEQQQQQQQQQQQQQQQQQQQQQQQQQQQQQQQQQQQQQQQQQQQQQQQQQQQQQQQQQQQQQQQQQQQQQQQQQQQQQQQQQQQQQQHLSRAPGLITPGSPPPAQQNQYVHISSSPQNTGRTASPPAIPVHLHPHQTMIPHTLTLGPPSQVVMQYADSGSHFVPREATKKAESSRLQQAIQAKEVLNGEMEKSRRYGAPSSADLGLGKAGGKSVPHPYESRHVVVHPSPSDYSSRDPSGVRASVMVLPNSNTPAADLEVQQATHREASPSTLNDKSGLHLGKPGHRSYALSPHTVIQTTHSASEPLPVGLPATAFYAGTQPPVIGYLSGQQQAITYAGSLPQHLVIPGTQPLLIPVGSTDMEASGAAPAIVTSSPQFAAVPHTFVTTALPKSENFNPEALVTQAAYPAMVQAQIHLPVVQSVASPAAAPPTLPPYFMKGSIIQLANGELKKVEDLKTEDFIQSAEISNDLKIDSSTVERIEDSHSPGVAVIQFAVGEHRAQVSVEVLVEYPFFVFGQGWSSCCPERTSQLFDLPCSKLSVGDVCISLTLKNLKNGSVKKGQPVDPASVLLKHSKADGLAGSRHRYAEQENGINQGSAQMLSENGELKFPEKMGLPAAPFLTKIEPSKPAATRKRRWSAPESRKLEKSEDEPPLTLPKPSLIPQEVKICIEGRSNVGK
# T3: GST-Atxn1-33Q (UniProt P54253 1-815)
# T3 chain: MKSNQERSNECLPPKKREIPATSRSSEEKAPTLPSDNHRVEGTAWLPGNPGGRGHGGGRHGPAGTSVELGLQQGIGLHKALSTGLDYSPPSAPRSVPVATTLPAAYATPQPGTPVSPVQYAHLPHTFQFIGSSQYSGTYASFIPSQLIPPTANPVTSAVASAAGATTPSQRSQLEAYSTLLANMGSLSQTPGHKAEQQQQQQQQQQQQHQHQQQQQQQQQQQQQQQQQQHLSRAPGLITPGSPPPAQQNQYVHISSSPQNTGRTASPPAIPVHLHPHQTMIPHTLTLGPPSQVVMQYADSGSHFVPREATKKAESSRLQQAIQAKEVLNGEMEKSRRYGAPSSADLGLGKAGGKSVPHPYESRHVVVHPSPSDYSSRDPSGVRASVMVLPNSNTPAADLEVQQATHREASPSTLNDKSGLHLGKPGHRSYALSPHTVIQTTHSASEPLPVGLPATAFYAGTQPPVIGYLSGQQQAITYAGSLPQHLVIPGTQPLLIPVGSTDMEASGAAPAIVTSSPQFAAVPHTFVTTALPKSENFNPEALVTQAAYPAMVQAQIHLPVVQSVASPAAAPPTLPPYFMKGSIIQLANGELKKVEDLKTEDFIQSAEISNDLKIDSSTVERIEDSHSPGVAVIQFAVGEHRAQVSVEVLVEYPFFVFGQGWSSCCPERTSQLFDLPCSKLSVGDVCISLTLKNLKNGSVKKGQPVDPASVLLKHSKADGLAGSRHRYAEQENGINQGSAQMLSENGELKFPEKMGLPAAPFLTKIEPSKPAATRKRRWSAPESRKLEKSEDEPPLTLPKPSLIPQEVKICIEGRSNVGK
# T4: GST-Htt-110Q
# T4 chain: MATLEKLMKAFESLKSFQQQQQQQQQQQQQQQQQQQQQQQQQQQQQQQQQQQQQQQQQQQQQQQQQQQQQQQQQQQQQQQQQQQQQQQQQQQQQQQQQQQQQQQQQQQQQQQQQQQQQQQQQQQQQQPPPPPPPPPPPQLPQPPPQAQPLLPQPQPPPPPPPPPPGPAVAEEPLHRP
# B1: full-length human PQBP5 (His-tag fusion protein) (natural protein)
# chain: MQVSSLNEVKIYSLSCGKSLPEWLSDRKKRALQKKDVDVRRRIELIQDFEMPTVCTTIKVSKDGQYILATGTYKPRVRCYDTYQLSLKFERCLDSEVVTFEILSDDYSKIVFLHNDRYIEFHSQSGFYYKTRIPKFGRDFSYHYPSCDLYFVGASSEVYRLNLEQGRYLNPLQTDAAENNVCDINSVHGLFATGTIEGRVECWDPRTRNRVGLLDCALNSVTADSEINSLPTISALKFNGALTMAVGTTTGQVLLYDLRSDKPLLVKDHQYGLPIKSVHFQDSLDLILSADSRIVKMWNKNSGKIFTSLEPEHDLNDVCLYPNSGMLLTANETPKMGIYYIPVLGPAPRWCSFLDNLTEELEENPESTVYDDYKFVTKKDLENLGLTHLIGSPFLRAYMHGFFMDIRLYHKVKLMVNPFAYEEYRKDKIRQKIEETRAQRVQLKKLPKVNKELALKLIEEEEEKQKSTWKKKVKSLPNILTDDRFKVMFENPDFQVDEESEEFRLLNPLVSKISEKRKKKLRLLEQQELREKEEEEEPEGKPSDAESSESSDDEKAWVEEVRKQRRLLQQEEKVKRQERLKEDQQTVLKPQFYEIKAGEEFRSFKDSATKQKLMNKTLEDRLKIEAKNGTLSVSDTTVGSKQLTFTLKRSEQQKKQQEAEKLHRQERKRLRRSAGHLKSRHKRGRSFH
# B2: full-length human PQBP5 (His-tag fusion protein) (natural protein)
# chain: B1 chain
# modifications: Exon 1 with the polyQ tract (18-38, 21Q) repeated to 110Q, as in the assayed protein name. The plasmid is called 103Q, so the repeat count is ambiguous. GST omitted.
# B3: PQBP5-Δ1 (protein)
# chain: TYQLSLKFERCLDSEVVTFEILSDDYSKIVFLHNDRYIEFHSQSGFYYKTRIPKFGRDFSYHYPSCDLYFVGASSEVYRLNLEQGRYLNPLQTDAAENNVCDINSVHGLFATGTIEGRVECWDPRTRNRVGLLDCALNSVTADSEINSLPTISALKFNGALTMAVGTTTGQVLLYDLRSDKPLLVKDHQYGLPIKSVHFQDSLDLILSADSRIVKMWNKNSGKIFTSLEPEHDLNDVCLYPNSGMLLTANETPKMGIYYIPVLGPAPRWCSFLDNLTEELEENPESTVYDDYKFVTKKDLENLGLTHLIGSPFLRAYMHGFFMDIRLYHKVKLMVNPFAYEEYRKDKIRQKIEETRAQRVQLKKLPKVNKELALKLIEEEEEKQKSTWKKKVKSLPNILTDDRFKVMFENPDFQVDEESEEFRLLNPLVSKISEKRKKKLRLLEQQELREKEEEEEPEGKPSDAESSESSDDEKAWVEEVRKQRRLLQQEEKVKRQERLKEDQQTVLKPQFYEIKAGEEFRSFKDSATKQKLMNKTLEDRLKIEAKNGTLSVSDTTVGSKQLTFTLKRSEQQKKQQEAEKLHRQERKRLRRSAGHLKSRHKRGRSFH
# modifications: Delta number assigned from the order of the constructs in the methods; initiator Met from the primer and tag omitted.
# B4: PQBP5-Δ1 (protein)
# chain: B3 chain
# modifications: Delta number assigned from the order of the constructs in the methods; initiator Met from the primer and tag omitted. Exon 1 with the polyQ tract (18-38, 21Q) repeated to 110Q, as in the assayed protein name. The plasmid is called 103Q, so the repeat count is ambiguous. GST omitted.
# B5: PQBP5-Δ5 (protein)
# chain: MQVSSLNEVKIYSLSCGKSLPEWLSDRKKRALQKKDVDVRRRIELIQDFEMPTVCTTIKVSKDGQYILATGTYKPRVRCYDTYQLSLKFERCLDSEVVTFEILSDDYSKIVFLHNDRYIEFHSQSGFYYKTRIPKFGRDFSYHYPSCDLYFVGASSEVYRLNLEQGRYLNPLQTDAAENNVCDINSVHGLFATGTIEGRVECWDPRTRNRVGLLDCALNSVTADSEINSLPTISALKFNGALTMAVGTTTGQVLLYDLRSDKPLLVKDHQYGLPIKSVHFQDSLDLILSADSRIVKMWNKNSGKIFTSLEPEHDLNDVCLYPNSGMLLTANETPKMGIYYIPVLGPAPRWCSFLDNLTEELEENPESTVYDDYKFVTKKDLENLGLTHLIGSPFLRAYMHGFFMDIRLYHKVKLMVNPFAYEEYRKDKIRQKIEETRAQRVQLKKLPKVNKELALKLIEEEEEKQKSTWKKKVKSLPNILT
# modifications: Delta number assigned from the order of the constructs in the methods (fifth: 1-481, lacking NUC153); tag omitted. Exon 1 with the polyQ tract (18-38, 21Q) repeated to 110Q, as in the assayed protein name. The plasmid is called 103Q, so the repeat count is ambiguous. GST omitted.
# What was measured:
# [1] = molecular target: T1, human fibrillarin (His-tag fusion …); assay: SPR; PQBP5 analyte, fibrillarin immobilized
# GST-Atxn1-86Q = molecular target: T2, GST-Atxn1-86Q; assay: SPR
# GST-Atxn1-33Q = molecular target: T3, GST-Atxn1-33Q; assay: SPR
# [2] = molecular target: human nucleolin (His-tag fusion protein) (human, UniProt P19338 1-710); assay: SPR; PQBP5 analyte, nucleolin immobilized
# GST-Htt-110Q = molecular target: T4, GST-Htt-110Q; assay: SPR
# Sequence of human nucleolin (His-tag fusion protein) (P19338 whole entry, the tested form may be a part): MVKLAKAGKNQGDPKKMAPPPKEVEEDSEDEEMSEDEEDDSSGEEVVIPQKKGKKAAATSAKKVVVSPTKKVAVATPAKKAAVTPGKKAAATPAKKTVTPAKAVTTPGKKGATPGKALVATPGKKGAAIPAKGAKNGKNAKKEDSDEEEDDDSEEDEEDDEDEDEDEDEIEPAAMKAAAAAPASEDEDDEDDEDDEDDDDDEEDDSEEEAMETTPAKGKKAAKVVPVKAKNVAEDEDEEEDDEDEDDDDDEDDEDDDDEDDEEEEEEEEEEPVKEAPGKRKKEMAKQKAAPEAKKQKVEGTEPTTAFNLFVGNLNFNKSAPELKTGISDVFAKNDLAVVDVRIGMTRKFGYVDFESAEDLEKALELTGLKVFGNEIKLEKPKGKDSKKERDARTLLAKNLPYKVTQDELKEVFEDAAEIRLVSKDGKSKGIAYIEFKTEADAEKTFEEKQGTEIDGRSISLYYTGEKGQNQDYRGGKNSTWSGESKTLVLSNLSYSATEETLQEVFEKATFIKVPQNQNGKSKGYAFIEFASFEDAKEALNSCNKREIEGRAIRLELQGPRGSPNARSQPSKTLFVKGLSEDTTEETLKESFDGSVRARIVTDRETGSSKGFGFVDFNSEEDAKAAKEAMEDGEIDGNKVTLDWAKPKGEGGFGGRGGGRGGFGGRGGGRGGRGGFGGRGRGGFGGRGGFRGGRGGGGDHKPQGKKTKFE
binder,measurement,setting,value
B1,Kd,[1],745 nM
same,Kd,GST-Atxn1-86Q,0.179 nM
same,Kd,GST-Atxn1-33Q,0.342 nM
same,Kd,[2],0.447 nM
B2,Kd,GST-Htt-110Q,0.00362 nM
B3,Kd,GST-Atxn1-86Q,0.294 nM
same,Kd,GST-Atxn1-33Q,0.355 nM
B4,Kd,GST-Htt-110Q,2.11 nM
B5,Kd,GST-Htt-110Q,0.424 nM
